Measurements as given in patent publication US6991794B1, “Progenitor cell preservation factors and methods for and products of their use” (ImClone Systems Incorporated, priority 1997, dated 2006).

Experiments:
[1] = biological target: FLT3-transfected 3T3 cells (murine FLT3 extracellular portion/human Fms chimera and/or full-length human FLT3; not told apart); assay: cell-based or functional assay
[2] = test system: CB CD34+ cells; assay: cell cycle analysis of CD34+ cells (propidium iodide); details: CD34+ cells cultured 3 days; mean ± SE
Experimental: Cells were analyzed for their DNA content by staining with propidium iodide (Sigma). The cells were cultured in ex vivo cultures as described, for 3, 6, 10, and 13 days as indicated. At each time point, the cells were collected, resuspended to a final concentration of 0.1-1×10^6 cells/mL, and incubated with 0.1% Triton X 100 (Sigma) for 20 minutes on ice. 50 mg/mL propidium iodide (PI) were added before analysis. Flow cytometeric analyses were performed using FACSort (Becton Dickinson, San Jose, Calif.).
The cell cycle status of CB CD34^+ cells was analyzed in 5 indepenent experiments with cells cultured for 3-13 days with either Dl-FRIL or a cytokine combination (SCF, Flt3-L, G-CSF, IL-3, IL-6) (Bhatia et al., J. Exp. Med. 186:619-624, 1997; Conneally et al., Proc. Natl. Acad. Sci. USA 94:9836-9841, 1997).

[3] = test system: CB CD34+ progenitor cells; assay: ex vivo culture of CB CD34+ cells: total cell numbers and CFU assay; format: cell-based, human
Experimental: Human umbilical cord blood (CB) samples were obtained from full term deliveries. The blood samples were diluted 1:1 in phosphate-buffered-saline (PBS) without Mg^+2/Ca^+2, supplemented with 10% fetal bovine serum (FBS). Low density mononuclear cells were collected after standard separation on Ficoll-Paque (Pharmacia Biotech, Uppsala, Sweden), and washed in RPMI with 10% FBS. Some samples were frozen in 10% DMSO, while the others were used fresh. Enrichment of CD34^+ cells was performed with mini MACS separation kit (Miltenyi Biotec, Bergisch Gladbach, Germany) according to the manufacturer's instructions. The purity of the enriched CD34^+ cells was 60-80% using one column. […]
Ex vivo Cultures Human CD34^+ enriched cells were cultured in 24 well plates (2-4×10^5 cells in 0.5 mL), containing RPMI supplemented with 10% FBS+1% BSA. […] After 3, 6, 10 and 13 days, the cells were collected, counted, analyzed by FACS, seeded in to semisolid cultures and transplanted into NOD-SCID mice.
Semisolid cultures were performed in order to detect the levels of human progenitors in ex vivo cultures, and in the marrow of transplanted mice. […] The cultures were incubated at 37° C. in a humidified atmosphere containing 5% CO2 and scored 14 days later with an inverted microscope for myeloid, erythroid, and mixed colonies by morphologic criteria. […]

[4] = test system: human cord blood progenitors; assay: cord blood mononuclear cell liquid culture followed by methylcellulose colony assay; format: cell-based; details: for Blast colonies / Erythroid colonies / Mix colonies / Myeloid colonies: 40 ng/ml, ± SD of triplicate
Experimental: To do this, umbilical cord blood from healthy donors was collected in 100 units/ml of heparin. Cord blood mononuclear cells (CB mnc) were isolated within 4 hours of collection by separation using the density separation medium sold under the trademark of FICOLL-PAQUE® (Pharmacia Biotech, Piscataway, N.J.) following manufacturer's instruction and washed in X-VIVO 10 medium (BioWhittaker, Walkersville, Md.). CB mnc were then cultured in six well tissue culture plates (Corning Inc., Corning, N.Y.) at a concentration of 200,000 cells/mL in a volume of 4 mL of X-VIVO 10 (i.e., 800,000 cells total per well). Dl-FRIL and/or recombinant E. coli Flt3-L (recFL; BioSource International, Camarillo, Calif.) were added at a concentration of 40 ng/ml at the outset (with no addition as a control). Cultures were incubated in humidified chambers without medium changes for up to 29 days.
After incubation, the cultured CB mnc cells were harvested by washing in X-VIVO 10 (i.e., harvested cells were pelleted and resuspended in X-VIVO 10) to remove the Dl-FRIL and/or recFL, and then determining viable cell number by trypan blue (Sigma) exclusion.
The progenitor capacity of the blast-like colonies was examined further for cells initially cultured for 3 weeks in either Dl-FRIL, recFL, no addition, or Dl-FRIL+recFL, and then without these regulators for an additional 6 weeks in a methylcellulose colony assay. […] Viable cells were harvested from the cells initially cultured in Dl-FRIL alone and replated in an colony assay (in methylcellulose colony assay medium) for an additional 4 weeks.

[5] = test system: FLT3 receptor; format: cell-based; details: murine chimeric or full length human receptor
Description: A specific and quantitative biological assay using NIH 3T3 fibroblasts transfected either with a chimeric receptor having the extracellular portion of the murine FLT3 receptor combined with the intracellular portion of the human Fms receptor (Dosil et al., Mol. Cell. Biol. 13(10):6572-6585 1993) or with the full length human receptor (Small et al., Proc. Natl. Acad. Sci. USA 91:459-463, 1994) can be used to evaluate lectin biological activity during purification. Serial two-fold dilutions of lectin samples across rows of a 96 well plate allowed for greater than a thousand-fold range to access FLT3 3T3 biological activity.
Specifically, 3T3 cells cultured in tissue culture plates (Becton Dickinson Labware, Lincoln Park, N.J.) were removed from the plates by washing cells twice in Hank's buffered saline solution (HBSS; Gibco Laboratories, Grand Island, N.Y.). […] Proliferation and cell survival was quantitated by addition of XTT (2, 3-bis[Methoxy-4-nitro-5sulfophenyl]-2H-tetrazolium-5 carboxanilide inner salt) (Diagnostic Chemicals Ltd, Charlottetown, Prince Edward Island, Canada), which is a tetraformazan salt cleaved by actively respiring cells (Roehm et al., J. Immunol. Methods 142: 257-265, 1991). […] One unit of biological activity was defined as the reciprocal dilution at which half-maximal stimulation of cells is detected.

[6] = test system: Flt3-expressing 3T3 cells; assay: Flt3 3T3 assay during purification of Pv-FRIL; format: cell-based; details: by itself at <1 ng/mL
Experimental: To create factor-dependence for receptor-transfected 3T3 cells, growth conditions were compromised to permit only ligands to rescue cells from death. To do this, 3T3 cell lines were assayed in 96 well plates (Becton Dickinson Labware, Lincoln Park, N.J.) containing 3,000 cells in 100 μL of serum-free medium consisting of 10% AIMV (Life Technologies) and 90% DMEM. In each experiment, samples were serially diluted two-fold across rows starting at a 1:10 dilution. Viable cells were quantitated after 3-5 days by XTT (2,3-bis[Methoxy-4-nitro-5sulfophenyl]-2H-tetrazolium-5 carboxanilide inner salt) (Sigma, St. Louis, Mo.) (Roehm et al., supra). Relative activity (units/ml) and specific activity (units/mg) are defined as the reciprocal dilution at which half-maximal stimulation of cells was detected.
Each batch of PHA-LCM was generated in serum-free medium with cells from individual normal donors. To start purification, the PHA-LCM with Flt3 3T3 activity was pooled in 30 liter lots with approximately 10^7 Flt3 3T3 units. Twenty-five liters of PHA-LCM was diafiltered into 50 mM Tris-HCl, pH 7.6, 50 mM NaCl and then concentrated to 2-2.5 liters by tangential flow ultrafiltration on a 10 kDa molecular weight cutoff membrane (Pellicon, Millipore, Bedford, Mass.). A Blue-sepharose FF (Pharmacia Biotech) column (10 cm×15 cm) was equilibrated with 50 mM Tris-HCl, pH 7.4,50 mM NaCl. […]

[7] = in vivo; cited from earlier work

Pv-FRIL (native, from Phaseolus vulgaris red kidney bean extract / purified from PHA-LCM)
Specific Activity (u/mg) in the Flt3 3T3 assay, Superdex 75 step [1]: 244000 units/mg

B1: recFL: recombinant E. coli Flt3-L (FLT3 ligand) (protein, UniProt P49771 27-235, looked up)
Fms-related tyrosine kinase 3 …: TQDCSFQHSPISSDFAVKIRELSDYLLQDYPVTVASNLQDEELCGGLWRLVLAQRWMERLKTVAGSKMQGLLERVNTEIHFVTKCAFQPPPSCLRFVQTNISRLLQETSEQLVALKPWITRQNFSRCLELQCQPDSSTLPPPWSPRPLEATAPTAPQPPLLLLLLLPVGLLLLAAAWCLHWQRTRRRTPRPGEQVPPVPSPQDLLLVEH
G0/G1 [2]: 68.4 ± 2.1 percentage
SG2M [2]: 22.2 ± 5.4 percentage
Sub G0/G1 [2]: 9.4 ± 3.3 percentage
increase in number of total cells ([3]; 10 days of suspension culture, FIG. 34A): 4.5 fold
percentage of CFU-GEMM ([3]; first factor 6 days, then cytokines): 18.2%
colonies after 21 days culture and 6 weeks methylcellulose colony assay [4]: No colonies were detected
fewer mature colonies than with FRIL or FRIL plus recFL ([4]; cells cultured 15 days): 24 fold
Blast colonies ([4]; day 15 of culture): 0
Erythroid colonies ([4]; day 15 of culture): 0
Mix colonies ([4]; day 15 of culture): 0
Myeloid colonies ([4]; day 15 of culture): 40 ± 69
Blast colonies ([4]; day 21 of culture): 0
Erythroid colonies ([4]; day 21 of culture): 0
Mix colonies ([4]; day 21 of culture): 0
Myeloid colonies ([4]; day 21 of culture): 0
Blast colonies ([4]; day 29 of culture): 0
Erythroid colonies ([4]; day 29 of culture): 0
Mix colonies ([4]; day 29 of culture): 0
Myeloid colonies ([4]; day 29 of culture): 0
rescue of FLT3-transfected 3T3 cells from death [5]: rescue FLT3-transfected cells from death

B2: recombinant hIL1-α: exogenous recombinant human interleukin 1-α (protein, UniProt P01583 113-271, looked up)
Interleukin-1 alpha: SAPFSFLSNVKYNFMRIIKYEFILNDALNQSIIRANDQYLTAAALHNLDEAVKFDMGAYKSSKDDAKITVILRISKTQLYVTAQDEDQPVLLKEMPEIPKTITGSETNLLFFWETHGTKNYFTSVAHPNLFIATKQDYWVCLAGGPPSITDFQILENQA
stimulatory activity on Flt3 3T3 cells [6]: no stimulatory activity

B3: peanut agglutinin (PNA): dietary lectin from raw peanuts (protein, UniProt P02872 24-273, looked up)
Galactose-binding lectin: AETVSFNFNSFSEGNPAINFQGDVTVLSNGNIQLTNLNKVNSVGRVLYAMPVRIWSSATGNVASFLTSFSFEMKDIKDYDPADGIIFFIAPEDTQIPAGSIGGGTLGVSDTKGAGHFVGVEFDTYSNSEYNDPPTDHVGIDVNSVDSVKTVPWNSVSGAVVKVTVIYDSSTKTLSVAVTNDNGDITTIAQVVDLKAKLPERVKFGFSASGSLGGRQIHLIRSWSFTSTLITTTRRSIDNNEKKIMNMASA
level in the blood [7]: 1 to 5 µg/mL
